Reference: article PMC5510989

B1: MBP-DDX1 WT (DEAD-Box Protein 1 fused to maltose binding protein) (enzyme)
chain: MAAFSEMGVMPEIAQAVEEMDWLLPTDIQAESIPLILGGGDVLMAAETGSGKTGAFSIPVIQIVYETLKDQQEGKKGKTTIKTGASVLNKWQMNPYDRGSAFAIGSDGLCCQSREVKEWHGCRATKGLMKGKHYYEVSCHDQGLCRVGWSTMQASLDLGTDKFGFGFGGTGKKSHNKQFDNYGEEFTMHDTIGCYLDIDKGHVKFSKNGKDLGLAFEIPPHMKNQALFPACVLKNAELKFNFGEEEFKFPPKDGFVALSKAPDGYIVKSQHSGNAQVTQTKFLPNAPKALIVEPSRELAEQTLNNIKQFKKYIDNPKLRELLIIGGVAARDQLSVLENGVDIVVGTPGRLDDLVSTGKLNLSQVRFLVLDEADGLLSQGYSDFINRMHNQIPQVTSDGKRLQVIVCSATLHSFDVKKLSEKIMHFPTWVDLKGEDSVPDTVHHVVVPVNPKTDRLWERLGKSHIRTDDVHAKDNTRPGANSPEMWSEAIKILKGEYAVRAIKEHKMDQAIIFCRTKIDCDNLEQYFIQQGGGPDKKGHQFSCVCLHGDRKPHERKQNLERFKKGDVRFLICTDVAARGIDIHGVPYVINVTLPDEKQNYVHRIGRVGRAERMGLAISLVATEKEKVWYHVCSSRGKGCYNTRLKEDGGCTIWYNEMQLLSEIEEHLNCTISQVEPDIKVPVDEFDGKVTYGQKRAAGGGSYKGHVDILAPTVQELAALEKEAQTSFLHLGYLPNQLFRTF
B2: MBP-DDX1 K52N (enzyme)
chain: MAAFSEMGVMPEIAQAVEEMDWLLPTDIQAESIPLILGGGDVLMAAETGSGNTGAFSIPVIQIVYETLKDQQEGKKGKTTIKTGASVLNKWQMNPYDRGSAFAIGSDGLCCQSREVKEWHGCRATKGLMKGKHYYEVSCHDQGLCRVGWSTMQASLDLGTDKFGFGFGGTGKKSHNKQFDNYGEEFTMHDTIGCYLDIDKGHVKFSKNGKDLGLAFEIPPHMKNQALFPACVLKNAELKFNFGEEEFKFPPKDGFVALSKAPDGYIVKSQHSGNAQVTQTKFLPNAPKALIVEPSRELAEQTLNNIKQFKKYIDNPKLRELLIIGGVAARDQLSVLENGVDIVVGTPGRLDDLVSTGKLNLSQVRFLVLDEADGLLSQGYSDFINRMHNQIPQVTSDGKRLQVIVCSATLHSFDVKKLSEKIMHFPTWVDLKGEDSVPDTVHHVVVPVNPKTDRLWERLGKSHIRTDDVHAKDNTRPGANSPEMWSEAIKILKGEYAVRAIKEHKMDQAIIFCRTKIDCDNLEQYFIQQGGGPDKKGHQFSCVCLHGDRKPHERKQNLERFKKGDVRFLICTDVAARGIDIHGVPYVINVTLPDEKQNYVHRIGRVGRAERMGLAISLVATEKEKVWYHVCSSRGKGCYNTRLKEDGGCTIWYNEMQLLSEIEEHLNCTISQVEPDIKVPVDEFDGKVTYGQKRAAGGGSYKGHVDILAPTVQELAALEKEAQTSFLHLGYLPNQLFRTF
B3: MBP-DDX1 L322E (enzyme)
chain: MAAFSEMGVMPEIAQAVEEMDWLLPTDIQAESIPLILGGGDVLMAAETGSGKTGAFSIPVIQIVYETLKDQQEGKKGKTTIKTGASVLNKWQMNPYDRGSAFAIGSDGLCCQSREVKEWHGCRATKGLMKGKHYYEVSCHDQGLCRVGWSTMQASLDLGTDKFGFGFGGTGKKSHNKQFDNYGEEFTMHDTIGCYLDIDKGHVKFSKNGKDLGLAFEIPPHMKNQALFPACVLKNAELKFNFGEEEFKFPPKDGFVALSKAPDGYIVKSQHSGNAQVTQTKFLPNAPKALIVEPSRELAEQTLNNIKQFKKYIDNPKLRELEIIGGVAARDQLSVLENGVDIVVGTPGRLDDLVSTGKLNLSQVRFLVLDEADGLLSQGYSDFINRMHNQIPQVTSDGKRLQVIVCSATLHSFDVKKLSEKIMHFPTWVDLKGEDSVPDTVHHVVVPVNPKTDRLWERLGKSHIRTDDVHAKDNTRPGANSPEMWSEAIKILKGEYAVRAIKEHKMDQAIIFCRTKIDCDNLEQYFIQQGGGPDKKGHQFSCVCLHGDRKPHERKQNLERFKKGDVRFLICTDVAARGIDIHGVPYVINVTLPDEKQNYVHRIGRVGRAERMGLAISLVATEKEKVWYHVCSSRGKGCYNTRLKEDGGCTIWYNEMQLLSEIEEHLNCTISQVEPDIKVPVDEFDGKVTYGQKRAAGGGSYKGHVDILAPTVQELAALEKEAQTSFLHLGYLPNQLFRTF
B4: MBP-DDX1 G325E (enzyme)
chain: MAAFSEMGVMPEIAQAVEEMDWLLPTDIQAESIPLILGGGDVLMAAETGSGKTGAFSIPVIQIVYETLKDQQEGKKGKTTIKTGASVLNKWQMNPYDRGSAFAIGSDGLCCQSREVKEWHGCRATKGLMKGKHYYEVSCHDQGLCRVGWSTMQASLDLGTDKFGFGFGGTGKKSHNKQFDNYGEEFTMHDTIGCYLDIDKGHVKFSKNGKDLGLAFEIPPHMKNQALFPACVLKNAELKFNFGEEEFKFPPKDGFVALSKAPDGYIVKSQHSGNAQVTQTKFLPNAPKALIVEPSRELAEQTLNNIKQFKKYIDNPKLRELLIIEGVAARDQLSVLENGVDIVVGTPGRLDDLVSTGKLNLSQVRFLVLDEADGLLSQGYSDFINRMHNQIPQVTSDGKRLQVIVCSATLHSFDVKKLSEKIMHFPTWVDLKGEDSVPDTVHHVVVPVNPKTDRLWERLGKSHIRTDDVHAKDNTRPGANSPEMWSEAIKILKGEYAVRAIKEHKMDQAIIFCRTKIDCDNLEQYFIQQGGGPDKKGHQFSCVCLHGDRKPHERKQNLERFKKGDVRFLICTDVAARGIDIHGVPYVINVTLPDEKQNYVHRIGRVGRAERMGLAISLVATEKEKVWYHVCSSRGKGCYNTRLKEDGGCTIWYNEMQLLSEIEEHLNCTISQVEPDIKVPVDEFDGKVTYGQKRAAGGGSYKGHVDILAPTVQELAALEKEAQTSFLHLGYLPNQLFRTF
B5: MBP-DDX1 L303E (enzyme)
chain: MAAFSEMGVMPEIAQAVEEMDWLLPTDIQAESIPLILGGGDVLMAAETGSGKTGAFSIPVIQIVYETLKDQQEGKKGKTTIKTGASVLNKWQMNPYDRGSAFAIGSDGLCCQSREVKEWHGCRATKGLMKGKHYYEVSCHDQGLCRVGWSTMQASLDLGTDKFGFGFGGTGKKSHNKQFDNYGEEFTMHDTIGCYLDIDKGHVKFSKNGKDLGLAFEIPPHMKNQALFPACVLKNAELKFNFGEEEFKFPPKDGFVALSKAPDGYIVKSQHSGNAQVTQTKFLPNAPKALIVEPSRELAEQTENNIKQFKKYIDNPKLRELLIIGGVAARDQLSVLENGVDIVVGTPGRLDDLVSTGKLNLSQVRFLVLDEADGLLSQGYSDFINRMHNQIPQVTSDGKRLQVIVCSATLHSFDVKKLSEKIMHFPTWVDLKGEDSVPDTVHHVVVPVNPKTDRLWERLGKSHIRTDDVHAKDNTRPGANSPEMWSEAIKILKGEYAVRAIKEHKMDQAIIFCRTKIDCDNLEQYFIQQGGGPDKKGHQFSCVCLHGDRKPHERKQNLERFKKGDVRFLICTDVAARGIDIHGVPYVINVTLPDEKQNYVHRIGRVGRAERMGLAISLVATEKEKVWYHVCSSRGKGCYNTRLKEDGGCTIWYNEMQLLSEIEEHLNCTISQVEPDIKVPVDEFDGKVTYGQKRAAGGGSYKGHVDILAPTVQELAALEKEAQTSFLHLGYLPNQLFRTF

Molecular target: HIV-1 Rev (Regulator of Expression of Virion), Alexa-labelled (HIV-1 isolate BH10)
Test: fluorescence polarisation

“MBP-DDX1 DEAD N-term + SPRY (domain or fragment)” and B1 are within 1.5-fold of each other in Kd: 43 nM for the first, 59 nM for the second.

Going from B2 to B3, the Kd rises from 65 nM to over 500 nM. The first binds more tightly here.

First: B4
Second: B5
The Kd of the first is lower: 29 nM for the first, over 700 nM for the second. The first binds more tightly here.
